Consider ten molecules from paper PMC7755903 (Nature Communications, 2020).

For orientation: Kd means the constant that tells how readily two partners part at equilibrium.

B1: humanized E104.v2 IgG4 (antibody, V domains shown)
VH: EVQLVESGPGLVKPSETLSLTCTVSRFSLIGYAITWIRQPPGKGLEWIGGISSAATTFYSSWAKSRVTISRDTSKNQVSLKLSSVTAADTAVYYCARDPRGYGAALDRLDLWGQGTLVTVSS
VL: DIQMTQSPSSLSASVGDRVTITCQSIKSVYNNRLGWYQQKPGKAPKLLIYETSILTSGVPSRFSGSGSGTDFTLTISSLQPEDFATYYCAGGFDRSGDTTFGQGTKVEIK
notes: variable domain of the heavy chain as in m6 (PDB 6VVU, Fab heavy chain) with V71R and F78V (Kabat numbering); human IgG4 heavy chain constant region; upper hinge printed as ESKYGPP; as the light chain of m6 (PDB 6VVU, Fab light chain); IgG4 isotype version of E104.v2; source: 293 cells, transient transfection, purified (MabSelect SuRe, SEC); copies: 2 + 2
B2: E104.v2 IgG1 hinge variant G1.CC (antibody, V domains shown)
VH: EVQLVESGPGLVKPSETLSLTCTVSRFSLIGYAITWIRQPPGKGLEWIGGISSAATTFYSSWAKSRVTISRDTSKNQVSLKLSSVTAADTAVYYCARDPRGYGAALDRLDLWGQGTLVTVSS
VL: DIQMTQSPSSLSASVGDRVTITCQSIKSVYNNRLGWYQQKPGKAPKLLIYETSILTSGVPSRFSGSGSGTDFTLTISSLQPEDFATYYCAGGFDRSGDTTFGQGTKVEIK
notes: variable domain of the heavy chain as in m6 (PDB 6VVU, Fab heavy chain) with V71R and F78V (Kabat numbering); human IgG1 heavy chain constant region before the upper hinge (CH1); upper hinge of the variant; human IgG1 heavy chain constant region after the upper hinge (core hinge from C226, CH2, CH3); as the light chain of m6 (PDB 6VVU, Fab light chain); IgG1 with two added cysteines in the upper …
B3: E104.v2 IgG1 hinge variant G1 + (GGS)3 (antibody, V domains shown)
VH: EVQLVESGPGLVKPSETLSLTCTVSRFSLIGYAITWIRQPPGKGLEWIGGISSAATTFYSSWAKSRVTISRDTSKNQVSLKLSSVTAADTAVYYCARDPRGYGAALDRLDLWGQGTLVTVSS
VL: DIQMTQSPSSLSASVGDRVTITCQSIKSVYNNRLGWYQQKPGKAPKLLIYETSILTSGVPSRFSGSGSGTDFTLTISSLQPEDFATYYCAGGFDRSGDTTFGQGTKVEIK
notes: variable domain of the heavy chain as in m6 (PDB 6VVU, Fab heavy chain) with V71R and F78V (Kabat numbering); human IgG1 heavy chain constant region before the upper hinge (CH1); upper hinge of the variant; human IgG1 heavy chain constant region after the upper hinge (core hinge from C226, CH2, CH3); as the light chain of m6 (PDB 6VVU, Fab light chain); IgG1 with an extended upper hinge; source: …
B4: E104.v2 IgG2 (antibody, V domains shown)
VH: EVQLVESGPGLVKPSETLSLTCTVSRFSLIGYAITWIRQPPGKGLEWIGGISSAATTFYSSWAKSRVTISRDTSKNQVSLKLSSVTAADTAVYYCARDPRGYGAALDRLDLWGQGTLVTVSS
VL: DIQMTQSPSSLSASVGDRVTITCQSIKSVYNNRLGWYQQKPGKAPKLLIYETSILTSGVPSRFSGSGSGTDFTLTISSLQPEDFATYYCAGGFDRSGDTTFGQGTKVEIK
notes: variable domain of the heavy chain as in m6 (PDB 6VVU, Fab heavy chain) with V71R and F78V (Kabat numbering); human IgG2 heavy chain constant region; upper hinge printed as ERKCCVE; as the light chain of m6 (PDB 6VVU, Fab light chain); IgG2 isotype version of E104.v2; source: 293 cells, transient transfection, purified (MabSelect SuRe, SEC); copies: 2 + 2
B5: E104.v2 IgG1 hinge variant G1 + GGS (antibody, V domains shown)
VH: EVQLVESGPGLVKPSETLSLTCTVSRFSLIGYAITWIRQPPGKGLEWIGGISSAATTFYSSWAKSRVTISRDTSKNQVSLKLSSVTAADTAVYYCARDPRGYGAALDRLDLWGQGTLVTVSS
VL: DIQMTQSPSSLSASVGDRVTITCQSIKSVYNNRLGWYQQKPGKAPKLLIYETSILTSGVPSRFSGSGSGTDFTLTISSLQPEDFATYYCAGGFDRSGDTTFGQGTKVEIK
notes: as for B3
B6: E104.v2 IgG1 hinge variant G1 + GG (antibody, V domains shown)
VH: EVQLVESGPGLVKPSETLSLTCTVSRFSLIGYAITWIRQPPGKGLEWIGGISSAATTFYSSWAKSRVTISRDTSKNQVSLKLSSVTAADTAVYYCARDPRGYGAALDRLDLWGQGTLVTVSS
VL: DIQMTQSPSSLSASVGDRVTITCQSIKSVYNNRLGWYQQKPGKAPKLLIYETSILTSGVPSRFSGSGSGTDFTLTISSLQPEDFATYYCAGGFDRSGDTTFGQGTKVEIK
notes: humanized E104.v2 VH: as the VH of Sm2 (E104.v1, PDB 6VVU heavy chain) with V71R and F78V (Kabat numbering); human IgG1 heavy chain constant region, the CH1 domain up to the upper hinge; human IgG1 heavy chain constant region after the upper hinge (core and lower hinge, CH2, CH3); IgG1 with extended upper hinge; copies: 2 + 2
B7: humanized E104.v2 IgG4 (antibody, V domains shown)
VH: EVQLVESGPGLVKPSETLSLTCTVSRFSLIGYAITWIRQPPGKGLEWIGGISSAATTFYSSWAKSRVTISRDTSKNQVSLKLSSVTAADTAVYYCARDPRGYGAALDRLDLWGQGTLVTVSS
VL: DIQMTQSPSSLSASVGDRVTITCQSIKSVYNNRLGWYQQKPGKAPKLLIYETSILTSGVPSRFSGSGSGTDFTLTISSLQPEDFATYYCAGGFDRSGDTTFGQGTKVEIK
notes: humanized E104.v2 VH: as the VH of Sm2 (E104.v1, PDB 6VVU heavy chain) with V71R and F78V (Kabat numbering); human IgG4 heavy chain constant region, the CH1 domain up to the upper hinge; upper hinge of human IgG4; human IgG4 heavy chain constant region after the upper hinge (core and lower hinge, CH2, CH3); IgG4 isotype version of E104.v2; copies: 2 + 2
B8: humanized E104.v1 IgG1 (antibody, V domains shown)
VH: EVQLVESGPGLVKPSETLSLTCTVSRFSLIGYAITWIRQPPGKGLEWIGGISSAATTFYSSWAKSRVTISVDTSKNQFSLKLSSVTAADTAVYYCARDPRGYGAALDRLDLWGQGTLVTVSS
VL: DIQMTQSPSSLSASVGDRVTITCQSIKSVYNNRLGWYQQKPGKAPKLLIYETSILTSGVPSRFSGSGSGTDFTLTISSLQPEDFATYYCAGGFDRSGDTTFGQGTKVEIK
notes: humanized E104.v1 VH (rabbit E104 CDRs on the human VHIV consensus framework); Kabat numbering; human IgG1 heavy chain constant region, the CH1 domain up to the upper hinge; upper hinge of human IgG1, wild type; human IgG1 heavy chain constant region after the upper hinge (core and lower hinge, CH2, CH3); humanized E104 light chain (rabbit E104 CDRs on the human VLKI consensus framework); IgG1; …
B9: E104.v2 IgG1 hinge variant G1 + G (antibody, V domains shown)
VH: EVQLVESGPGLVKPSETLSLTCTVSRFSLIGYAITWIRQPPGKGLEWIGGISSAATTFYSSWAKSRVTISRDTSKNQVSLKLSSVTAADTAVYYCARDPRGYGAALDRLDLWGQGTLVTVSS
VL: DIQMTQSPSSLSASVGDRVTITCQSIKSVYNNRLGWYQQKPGKAPKLLIYETSILTSGVPSRFSGSGSGTDFTLTISSLQPEDFATYYCAGGFDRSGDTTFGQGTKVEIK
notes: as for B6
B10: humanized E104.v2 IgG2 (antibody, V domains shown)
VH: EVQLVESGPGLVKPSETLSLTCTVSRFSLIGYAITWIRQPPGKGLEWIGGISSAATTFYSSWAKSRVTISRDTSKNQVSLKLSSVTAADTAVYYCARDPRGYGAALDRLDLWGQGTLVTVSS
VL: DIQMTQSPSSLSASVGDRVTITCQSIKSVYNNRLGWYQQKPGKAPKLLIYETSILTSGVPSRFSGSGSGTDFTLTISSLQPEDFATYYCAGGFDRSGDTTFGQGTKVEIK
notes: humanized E104.v2 VH: as the VH of Sm2 (E104.v1, PDB 6VVU heavy chain) with V71R and F78V (Kabat numbering); human IgG2 heavy chain constant region, the CH1 domain up to the upper hinge; upper hinge of human IgG2; human IgG2 heavy chain constant region after the upper hinge (core and lower hinge, CH2, CH3); IgG2 isotype version of E104.v2; copies: 2 + 2

“And” between values parts separate entries of the source, which are not always exact repeats. Identical values can stand only once.

The target in one test is T1, human βI-tryptase monomer (Homo sapiens, UniProt Q15661).
T1 construct: mature human βI-tryptase, Ile31-Pro275 of Uniprot Q15661 (Ile16-Pro246 in chymotrypsinogen numbering); The monomer used in SPR and HDX-MS; also called monomeric βI-tryptase; monomeric β-tryptase
Briefly: SPR; Biacore T200; E104 IgG variants captured on immobilised mouse anti-human IgG (Fc) antibody on CM5 chips; threefold dilutions of human βI-tryptase monomer injected at 30 µL/min, 25 °C; 1:1 Langmuir model; n = 2. The note with it: both partners purified. On the technique in general: SPR reads the build-up and loss of mass on a sensor chip optically.
T1 sequence (Q15661 31-275): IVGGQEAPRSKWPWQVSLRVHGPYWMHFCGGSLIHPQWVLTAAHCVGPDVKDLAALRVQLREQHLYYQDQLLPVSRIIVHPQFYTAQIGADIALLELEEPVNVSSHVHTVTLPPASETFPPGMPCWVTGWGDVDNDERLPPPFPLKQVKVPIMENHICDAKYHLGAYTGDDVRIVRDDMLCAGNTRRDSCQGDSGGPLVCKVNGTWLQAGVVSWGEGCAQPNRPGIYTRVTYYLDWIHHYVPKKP
As to B1, the Kd is 0.7 ± 0.04 nM. The same measure, in the same setting: under B2 stands 0.4 ± 0.03 nM; under B3, 0.5 ± 0.1 nM.

Molecule B4 came in with a dissociation constant (Kd) of 0.6 ± 0.1 nM.

As for B5, the dissociation constant (Kd) turned out to be 0.5 ± 0.05 nM.

A further test has as its target T2, human βI-tryptase monomer (Homo sapiens, UniProt Q15661).
T2 construct: mature wild-type human βI-tryptase, Uniprot Q15661, Ile31-Pro275 (Ile16-Pro246 in chymotrypsinogen numbering); The SPR methods say only 'human βI-tryptase monomer'; The methods describe the monomeric form as the zymogen, which still carries the N-terminal His6 tag and enterokinase site before Ile16; also called monomeric βI-tryptase; β-tryptase; source: Trichoplusia ni cells (baculovirus, …)
Put plainly: SPR; Biacore T200; antibody captured on a CM5 chip by immobilised mouse anti-human IgG (Fc); threefold dilutions of βI-tryptase monomer injected at 30 µL/min, 25 °C, 3-min association, 10-min dissociation; 1:1 Langmuir fit; n = 2. The note with it: both partners purified.
T2 sequence (Q15661 31-275): as above
For B6, the Kd was 0.448 nM and 0.422 nM. On the same count and under the same terms, the value for B7 was 0.745 nM and 0.689 nM; that for B8 was 0.543 nM and 0.521 nM; that for B9 was 0.538 nM and 0.521 nM. Still for that read-out and setting: under B10 stands 0.537 nM and 0.672 nM.
